{"source": "patent US20230056815A1", "about": "(VIELA BIO, published 2023)", "binders": {"B1": {"name": "human soluble FLT3L (recombinant huFLT3L) (ligand, UniProt P49771 27-184, looked up)", "chain": "TQDCSFQHSPISSDFAVKIRELSDYLLQDYPVTVASNLQDEELCGGLWRLVLAQRWMERLKTVAGSKMQGLLERVNTEIHFVTKCAFQPPPSCLRFVQTNISRLLQETSEQLVALKPWITRQNFSRCLELQCQPDSSTLPPPWSPRPLEATAPTAPQP", "notes": "extracellular domain; also called rhuFLT3L; hFLT3L"}, "B2": {"name": "CAT5D9 Fab (Fab, V domains shown)", "VH": "QVQLVQSGAEVKKPGSSVKVSCKISGGTFSSYALSWVRQAPGQGLEWMGGIIPVFRTASYAQKFQGRVTITVDESASTGYIELSSLKSEDTATYYCASNNYVWGSYRFWGQGTTVTVSS", "VL": "NFMLTQPHSVSESPGKTVTISCTRTSGNIAGYFVQWYQQRPGSSPTTVIYEDYQRPSGVPDRFSGSIDRSSNSASLTISGLKPDDEADYYCQSYDDTSQGVFGAGTKVTVL", "notes": "also called 5D9 parent"}}, "key": {"[1]": {"molecular_target": "T1, hFLT3 receptor (human, UniProt P36888 27-541, limits assumed)", "T1 construct": "The construct is not described", "T1 sequence (looked up)": "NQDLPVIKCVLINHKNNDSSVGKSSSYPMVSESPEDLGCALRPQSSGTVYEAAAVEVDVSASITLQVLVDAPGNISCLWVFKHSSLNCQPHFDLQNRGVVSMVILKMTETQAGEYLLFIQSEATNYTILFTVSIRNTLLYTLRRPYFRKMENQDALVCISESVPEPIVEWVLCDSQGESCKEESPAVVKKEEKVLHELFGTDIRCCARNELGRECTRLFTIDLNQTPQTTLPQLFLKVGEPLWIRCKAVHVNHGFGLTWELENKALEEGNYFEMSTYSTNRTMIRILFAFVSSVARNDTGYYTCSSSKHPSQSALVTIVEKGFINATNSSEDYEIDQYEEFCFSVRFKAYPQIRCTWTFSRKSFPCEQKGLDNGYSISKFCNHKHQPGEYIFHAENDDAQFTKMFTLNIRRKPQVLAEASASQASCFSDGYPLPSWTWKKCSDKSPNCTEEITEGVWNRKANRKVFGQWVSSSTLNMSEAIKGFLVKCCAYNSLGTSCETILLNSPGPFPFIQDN", "assay": "Biacore"}, "[2]": {"molecular_target": "T2, FLT3 on RS4;11 cells (human, UniProt P36888 27-993)", "T2 construct": "whole, on cells; also called cell surface FLT3; CD135", "T2 sequence (looked up)": "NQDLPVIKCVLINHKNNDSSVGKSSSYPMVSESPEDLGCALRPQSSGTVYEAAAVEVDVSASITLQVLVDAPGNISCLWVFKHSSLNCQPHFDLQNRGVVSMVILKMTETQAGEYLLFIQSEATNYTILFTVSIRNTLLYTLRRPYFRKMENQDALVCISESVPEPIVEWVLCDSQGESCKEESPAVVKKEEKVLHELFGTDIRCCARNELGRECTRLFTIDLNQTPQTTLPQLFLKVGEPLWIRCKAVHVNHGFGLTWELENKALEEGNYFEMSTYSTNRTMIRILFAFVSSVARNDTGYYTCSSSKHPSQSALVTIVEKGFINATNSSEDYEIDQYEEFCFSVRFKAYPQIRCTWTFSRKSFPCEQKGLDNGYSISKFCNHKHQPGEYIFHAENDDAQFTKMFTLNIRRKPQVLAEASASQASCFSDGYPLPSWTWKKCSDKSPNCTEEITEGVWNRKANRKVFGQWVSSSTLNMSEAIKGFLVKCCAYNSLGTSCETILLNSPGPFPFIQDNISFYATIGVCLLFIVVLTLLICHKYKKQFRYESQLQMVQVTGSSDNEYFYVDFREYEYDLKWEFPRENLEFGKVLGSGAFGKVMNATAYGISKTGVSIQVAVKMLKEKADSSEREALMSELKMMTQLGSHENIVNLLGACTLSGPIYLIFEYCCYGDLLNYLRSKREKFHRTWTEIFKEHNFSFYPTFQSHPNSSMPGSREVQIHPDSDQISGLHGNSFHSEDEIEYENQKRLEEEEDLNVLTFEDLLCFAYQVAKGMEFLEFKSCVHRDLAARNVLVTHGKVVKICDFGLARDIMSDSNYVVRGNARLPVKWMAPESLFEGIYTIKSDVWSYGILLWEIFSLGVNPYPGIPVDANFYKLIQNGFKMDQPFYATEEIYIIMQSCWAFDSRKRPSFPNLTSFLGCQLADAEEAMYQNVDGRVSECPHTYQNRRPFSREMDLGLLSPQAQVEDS", "assay": "flow cytometry: biotinylated rhuFLT3L on RS4;11 cells, detected with BV421-streptavidin"}, "[3]": {"molecular_target": "T2, FLT3 on RS4;11 cells", "assay": "cell-based or functional assay"}, "[4]": {"molecular_target": "B1", "assay": "Biacore"}, "[5]": {"molecular_target": "T3, cynomolgus monkey soluble FLT3L (cynomolgus monkey)", "T3 construct": "extracellular domain; also called cyno sFLT3L; cyno FLT3L", "assay": "Biacore, Fab, kinetic (koff/kon)"}, "[6]": {"molecular_target": "B1", "assay": "Biacore, Fab, kinetic (koff/kon)"}, "[7]": {"molecular_target": "T3, cynomolgus monkey soluble FLT3L", "assay": "Biacore, Fab, steady-state"}, "[8]": {"molecular_target": "B1", "assay": "Biacore, Fab, steady-state"}, "[9]": {"molecular_target": "T3, cynomolgus monkey soluble FLT3L", "assay": "Biacore, Fab"}, "[10]": {"molecular_target": "B1", "assay": "Biacore, Fab"}, "[11]": {"molecular_target": "T3, cynomolgus monkey soluble FLT3L", "assay": "Biacore, Fab", "remark": "listed apart in the source"}, "[12]": {"molecular_target": "B1", "assay": "Biacore, Fab", "remark": "listed apart in the source"}}, "data": [{"binder": "B1", "values": [{"measurement": "Kd", "setting": "[1]", "result": 22.3, "unit": "nM"}, {"measurement": "koff", "setting": "[1]", "result": 0.00812, "unit": "s⁻¹"}, {"measurement": "kon", "setting": "[1]", "result": 360000, "unit": "M⁻¹ s⁻¹"}, {"measurement": "EC50 (read off the curve)", "setting": "[2]", "result": "~100", "unit": "pM"}, {"measurement": "fold decrease in Allophycocyanin (APC) MFI, an indicator of FLT3 expression, on RS4;11 cells", "setting": "[3]", "result": 25, "unit": "fold"}]}, {"binder": "B2", "values": [{"measurement": "Kd", "setting": "[4]", "result": 1160, "unit": "nM"}, {"measurement": "koff", "setting": "[4]", "result": 0.0707, "unit": "s⁻¹"}, {"measurement": "kon", "setting": "[4]", "result": 60000, "unit": "M⁻¹ s⁻¹"}, {"measurement": "Kd", "setting": "[5]", "result": 1160, "unit": "nM"}, {"measurement": "Kd", "setting": "[6]", "result": 1160, "unit": "nM"}, {"measurement": "Kd", "setting": "[7]", "result": 1610, "unit": "nM"}, {"measurement": "Kd", "setting": "[8]", "result": 1600, "unit": "nM"}, {"measurement": "koff", "setting": "[9]", "result": 0.0707, "unit": "s⁻¹"}, {"measurement": "kon", "setting": "[9]", "result": 61000, "unit": "M⁻¹ s⁻¹"}, {"measurement": "koff", "setting": "[10]", "result": 0.0707, "unit": "s⁻¹"}, {"measurement": "kon", "setting": "[10]", "result": 61000, "unit": "M⁻¹ s⁻¹"}, {"measurement": "fold KD against the remaining lead antibodies", "setting": "[11]", "result": "> 50", "unit": "fold"}, {"measurement": "fold KD against the remaining lead antibodies", "setting": "[12]", "result": "> 50", "unit": "fold"}]}]}
